The text below walks through data of the supplement of paper PMC9170038.

The data set concerns K4 kissing-loop RNA reporter. The experiment in a line: apparent KD of K4 kissing-loop reporter; higher = weaker reporter binding. The note with it: Eterna round: R107. The protocol:
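RNA-MaP round R107: designed RNA switches with theophylline, tryptophan, arginine or FMN aptamers are transcribed on-chip within common flanks. They are titrated with a labelled K4 kissing-loop RNA reporter in RNA-MaP buffer (100 mM Tris pH 7.5, 80 mM KCl, 4 mM MgCl2), without ligand or with the indicated ligand. Median apparent KD per design.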

[1] abbreviates: input ligand: theophylline 20 uM.
Where [2] appears, read: input ligand: tryptophan 2.4 mM.
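Further: bound reporter read as fluorescence of individual clusters on recovered sequencing chips by microscopy, with normalized cluster intensities fitted with a binding model.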

Turning to “GAUAAAUUGAUGCGUAGUGAUGCACGGGAAGGAGCGCGUUUUUUCGCAGGUAGGUCGCCCGACUGCGCGUUUCGAGUGAUGUUCG [5.)]”, the “apparent KD of K4 kissing-loop reporter” value by setting is: (input ligand: FMN 200 uM) 192 nM; (input ligand: arginine 13.2 mM) 198 nM; (input ligand: none) 193 nM; under setting [1], 197 nM; under setting [2], 172 nM.
For “GUAUUUCCCUCGGAUACCAGUCAUCAUGAGUAUAGUGAUGUUGUACGUCCGGAUGAUUUUGACCCUUGGCAGCCGUCUCCUUGAA [theeternabot_sameState_KL_Theo_B_49]”, the “apparent KD of K4 kissing-loop reporter” value is 515 nM (input ligand: FMN 200 uM); 371 nM (input ligand: arginine 13.2 mM); 593 nM (input ligand: none); 497 nM under setting [1]; 540 nM under setting [2].
With “GCCGCAAGGAUAGCAGCAAUAGGCGCUCGCUAGGAUAUCUGGAAACAGAGAAGGAGCUGGAGUGAUGUUUUACCUCCUAAAAUUA”, the “apparent KD of K4 kissing-loop reporter” value reads like this: (input ligand: FMN 200 uM) 517 nM; (input ligand: arginine 13.2 mM) 1900 nM; (input ligand: none) 682 nM; under setting [1], 210 nM; under setting [2], 1070 nM.
The like results for “CCGGACACCUCGGAUACCAGCCUGAGUGAUGUUCAAGCUGAACUCUCUUAAUAGGUCACCGGCCCUUGGCAGCCGCAUCCUAAGC [theeternabot_exclusion_KL_Theo_B_46]” were, in that order, 375 nM, 269 nM, 353 nM, 310 nM and 313 nM.
As for “CUAUUUCGCGUGGAUACCAGCGGUCGUAAAAUGUCAGUGAUGUUGAAGAGGAAAAGAGCUCGCCCUUGGCAGCCAUUCCGCACUA [theeternabot_sameState_KL_Theo_B_34]”, the “apparent KD of K4 kissing-loop reporter” value (input ligand: FMN 200 uM) turned out to be 591 nM; the “apparent KD of K4 kissing-loop reporter” value (input ligand: arginine 13.2 mM) was 363 nM; the “apparent KD of K4 kissing-loop reporter” value (input ligand: none) was determined as 568 nM; the “apparent KD of K4 kissing-loop reporter” value under setting [1] was found to be 446 nM; the “apparent KD of K4 kissing-loop reporter” value under setting [2] is 399 nM.
For the sequence “GGAGAGGUCUUGUUUGGAUGUGAUUAAUGGCGAGGACCGGUACGGCCGCCACUCGGGUGAUGUUAGUGAUGUUGAUGUAGUGAUG [uyumullin]”, the “apparent KD of K4 kissing-loop reporter” value (input ligand: FMN 200 uM) stood at 150 nM; the “apparent KD of K4 kissing-loop reporter” value (input ligand: arginine 13.2 mM) was 103 nM; the “apparent KD of K4 kissing-loop reporter” value (input ligand: none) was found to be 114 nM; the “apparent KD of K4 kissing-loop reporter” value under setting [1] worked out at 206 nM; the “apparent KD of K4 kissing-loop reporter” value under setting [2] turned out to be 109 nM.
Take “GCUAUGGUAGGAAGGAGCGCGGACGAAAUUUAUCGAGUGAUGUUCGAAUAAUUAAAUAAAACGCAGGUAGGUCGCCUACUAUAGC [Arginine B K4 26]”: the “apparent KD of K4 kissing-loop reporter” value reads like this: (input ligand: FMN 200 uM) 101 nM; (input ligand: arginine 13.2 mM) 97.5 nM; (input ligand: none) 97.5 nM; under setting [1], 95.5 nM; under setting [2], 75.7 nM.
Consider “AGCUCAGAGUGACUCGAUAAGAGUCACAAACGAGGACCGGUACGGCCGCCACUCGAAAUAAAGAGAGUGAUGUUCUCGCUGAGCA [FiskerMod 9 - Jieux - Same State Tryptophan A]”, for which the “apparent KD of K4 kissing-loop reporter” value (input ligand: FMN 200 uM) was 200 nM; the “apparent KD of K4 kissing-loop reporter” value (input ligand: arginine 13.2 mM) amounted to 211 nM; the “apparent KD of K4 kissing-loop reporter” value (input ligand: none) was found to be 223 nM; the “apparent KD of K4 kissing-loop reporter” value under setting [1] was 239 nM; the “apparent KD of K4 kissing-loop reporter” value under setting [2] amounted to 795 nM.
On to “UUAGAUCAAAGAUCAGUCUUAUGGAGGGAACGAGGACCGGUACGGCCGCCACUCGAGUGAUGUUCGAGAACCCUCGUGACAAAUU [AK4 EXC Tryptophan A]”, for which the “apparent KD of K4 kissing-loop reporter” value reads like this: (input ligand: FMN 200 uM) 196 nM; (input ligand: arginine 13.2 mM) 146 nM; (input ligand: none) 189 nM; under setting [1], 164 nM; under setting [2], 297 nM.
On to “UUAGUCUAGAGAAGGAGCGCAGUGAUGUUGCGGUAUGUGAAAAUAUGUAUAUAAUAAUAAAUGCAGGUAGGUCGCUCUAGACAUU [AK2 Exc Arginine B]”, for which the “apparent KD of K4 kissing-loop reporter” value stood at 68.4 nM (input ligand: FMN 200 uM); 89.7 nM (input ligand: arginine 13.2 mM); 64.9 nM (input ligand: none); 85.7 nM under setting [1]; 54.3 nM under setting [2].
Turning to “UUUCUAUCGGGAAGGAGCGUGAAUGAUAAUGGAUAUAGUGAUGUUAUAUAUAAGAACGAAUCGCAGGUAGGUCGCCCGGAUGACU [SSArgB.R]”, the “apparent KD of K4 kissing-loop reporter” value runs as follows: (input ligand: FMN 200 uM) 346 nM; (input ligand: arginine 13.2 mM) 357 nM; (input ligand: none) 323 nM; under setting [1], 389 nM; under setting [2], 169 nM.
For the sequence “GUAUCGCUAGGAGGAUAUGUCGUUUUUCAUAGCAAUGGCUGUGCGGAGUGAUGUUCCGAUUUACCGGCAGAAGGCCUAGUGAUAC [FMN B 28]”, the “apparent KD of K4 kissing-loop reporter” value (input ligand: FMN 200 uM) is 118 nM; the “apparent KD of K4 kissing-loop reporter” value (input ligand: arginine 13.2 mM) stood at 104 nM; the “apparent KD of K4 kissing-loop reporter” value (input ligand: none) turned out to be 92.9 nM; the “apparent KD of K4 kissing-loop reporter” value under setting [1] turned out to be 106 nM; the “apparent KD of K4 kissing-loop reporter” value under setting [2] came out at 89.8 nM.
The corresponding values for “CGGAUGUAGUGAUGUUAUAUUAGAUGUAGACGAGGACCGGUACGGCCGCCACUCGUGACGGCUGCUAGCGCGUUGCGAGGUUUGC [ExTryptoA.Cn]” are 716 nM, 488 nM, 758 nM, 518 nM and 543 nM.
For “AAGUAAUGUAUAGAUUAUAUACAUUAAACAGAGGAUAUGCAUUAUUGCAGAAGGCUGAAUGCAGUGAUGUUGCAAUAAUUAUUUA [JR_SSFMNA_Sub002]”, the “apparent KD of K4 kissing-loop reporter” value runs as follows: (input ligand: FMN 200 uM) 53.1 nM; (input ligand: arginine 13.2 mM) 190 nM; (input ligand: none) 184 nM; under setting [1], 297 nM; under setting [2], 146 nM.
“UGGAUAUAGUUUAGUCUGGUGAGGUCAGAUACCAGACUAGCGAUAGUCCCUUGGCAGCUGAUUAUGAUUGAGUGAUGUUCAAUCG [Theo A Ex t9]”: the “apparent KD of K4 kissing-loop reporter” value (input ligand: FMN 200 uM) came out at 187 nM; the “apparent KD of K4 kissing-loop reporter” value (input ligand: arginine 13.2 mM) came to 151 nM; the “apparent KD of K4 kissing-loop reporter” value (input ligand: none) turned out to be 170 nM; the “apparent KD of K4 kissing-loop reporter” value under setting [1] worked out at 157 nM; the “apparent KD of K4 kissing-loop reporter” value under setting [2] was 157 nM.
“AUUUUUUUGUCAGGAUAUUAGUAUGCUUUUGGUUUGUUAGUGAUGUUGAUAUUUUGUUUAUGUAUUUAAGAAGGGAUUUAGCGGU [etvuumullin]”: the “apparent KD of K4 kissing-loop reporter” value came to 409 nM (input ligand: FMN 200 uM); 276 nM (input ligand: arginine 13.2 mM); 362 nM (input ligand: none); 371 nM under setting [1]; 255 nM under setting [2].
As to “GGAGCAGUGAUGUUGCUUGUAAUGCAUUCAGAGGAUAUUCGUUUGGGAAGAAGGCUGAAUCGUUCUUCGAGUGAUGUUCGAGGAU [Same State FMN A GF 16]”, the “apparent KD of K4 kissing-loop reporter” value runs as follows: (input ligand: FMN 200 uM) 154 nM; (input ligand: arginine 13.2 mM) 154 nM; (input ligand: none) 156 nM; under setting [1], 148 nM; under setting [2], 138 nM.
As to “CGAGUGAUGUUCGUUUUUUACUUUUUUUGACAGGAUAUGCGGAAACGCAGAAGGGUCACCUUUGAGUUAAAAGAAGUUAUUUUUU [Ex FMN A 18]”, the “apparent KD of K4 kissing-loop reporter” value stood at 262 nM (input ligand: FMN 200 uM); 267 nM (input ligand: arginine 13.2 mM); 317 nM (input ligand: none); 271 nM under setting [1]; 249 nM under setting [2].
For the sequence “UGAUAGGACAGAAGGAGCGGGAGUGAUGUUCCCAAAGGAAGGUCUAGCAAAGCUGGACCCUCCCAGGUAGGUCGCUGUCCUAUCU [ArgBX 4 #SwitchBubble #StaticStem]”, the “apparent KD of K4 kissing-loop reporter” value was found to be 129 nM (input ligand: FMN 200 uM); 123 nM (input ligand: arginine 13.2 mM); 124 nM (input ligand: none); 155 nM under setting [1]; 118 nM under setting [2].
“GCAACAUUGGCAGGAUAUCAUUCUGAGUGAUGUUCAGGGUUCAGCUAACGAAAGUUAGUUGUACCAUGAGAAGGGCUAAUGUUGC [Omei KL FMN B SS A v1]”: the “apparent KD of K4 kissing-loop reporter” value runs as follows: (input ligand: FMN 200 uM) 332 nM; (input ligand: arginine 13.2 mM) 886 nM; (input ligand: none) 1120 nM; under setting [1], 1020 nM; under setting [2], 1080 nM.
Consider “AACGUGGCCAAAGGAUAUCUCCCUACGUCGUUGCAUCUACCUCUGUUUGCUCUGAGUGAUGUUUGGAGAGAAGGUUGAGGCGAUU [theeternabot_exclusion_KL_FMN_B_29]”, for which the “apparent KD of K4 kissing-loop reporter” value is 532 nM (input ligand: FMN 200 uM); 317 nM (input ligand: arginine 13.2 mM); 442 nM (input ligand: none); 513 nM under setting [1]; 387 nM under setting [2].
